The experiment concerns the target TF-Mec1 1–500aa (Saccharomyces cerevisiae, UniProt P38111 1-500). In words: pull-down.

Chain of TF-Mec1 1–500aa (P38111 1-500): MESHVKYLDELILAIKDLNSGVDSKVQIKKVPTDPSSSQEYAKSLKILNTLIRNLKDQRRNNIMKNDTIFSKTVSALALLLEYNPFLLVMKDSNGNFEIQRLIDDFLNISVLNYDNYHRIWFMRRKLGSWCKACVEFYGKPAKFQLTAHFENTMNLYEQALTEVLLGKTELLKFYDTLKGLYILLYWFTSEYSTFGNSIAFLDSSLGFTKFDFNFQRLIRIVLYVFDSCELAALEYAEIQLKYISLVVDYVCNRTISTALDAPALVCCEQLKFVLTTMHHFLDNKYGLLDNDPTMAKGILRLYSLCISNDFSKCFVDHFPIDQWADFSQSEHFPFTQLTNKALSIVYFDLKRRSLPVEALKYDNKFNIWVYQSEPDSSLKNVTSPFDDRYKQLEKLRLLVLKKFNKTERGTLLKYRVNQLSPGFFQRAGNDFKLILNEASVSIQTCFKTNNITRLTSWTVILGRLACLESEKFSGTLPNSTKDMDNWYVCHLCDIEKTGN

B1: GST–Atg13 460–640aa (domain or fragment, Saccharomyces cerevisiae, UniProt Q06628 460-640, looked up)
chain: ESQEDLMDFVKLLEEKPDLTIKKTSGNNPPNINISDSLIRYQNLKPSNDLLSEDLSVSLSMDPNHTYHRGRSDSHSPLPSISPSMHYGSLNSRMSQGANASHLIARGGGNSSTSALNSRRNSLDKSSNKQGMSGLPPIFGGESTSYHHDNKIQKYNQLGVEEDDDDENDRLLNQMGNSATK
B1: the binding result is listed as “binds”.
